Test results taken from US20170128554A1.

Target: Fetuin (denatured; sialylated complex N-linked glycans) (UniProt P12763)
Test: fetuin pull-down from cell lysates, low salt buffer, SDS-PAGE band quantification

Sequence of Fetuin (denatured; sialylated complex N-linked glycans) (P12763 19-359, one chain of several): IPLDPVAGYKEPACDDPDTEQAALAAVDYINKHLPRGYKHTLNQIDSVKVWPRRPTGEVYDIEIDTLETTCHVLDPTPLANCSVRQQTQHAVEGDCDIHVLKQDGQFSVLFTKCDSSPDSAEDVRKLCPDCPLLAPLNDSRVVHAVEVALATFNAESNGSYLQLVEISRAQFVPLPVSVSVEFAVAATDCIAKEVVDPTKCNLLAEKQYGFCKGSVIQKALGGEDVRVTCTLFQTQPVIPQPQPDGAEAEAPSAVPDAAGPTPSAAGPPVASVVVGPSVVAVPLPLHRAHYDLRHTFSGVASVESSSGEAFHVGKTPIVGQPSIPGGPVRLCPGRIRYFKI

| fold ability to be pulled down by immobilized fetuin, against wild type Fbs [times] | fold capacity to interact with fetuin, against wild type Fbs [fold] | Substance |
| --- | --- | --- |
| 1.5 | – | Fbs mutant S155A (from UniProt Q9UK22 113-296) |
| – | 2 | Fbs mutant S155G (from UniProt Q9UK22 113-296) |
